From patent US20040209257

Tested on: T1, AcuI restriction endonuclease (recombinant, clone #288) V1M (Acinetobacter calcoaceticus SRW4)
T1 sequence: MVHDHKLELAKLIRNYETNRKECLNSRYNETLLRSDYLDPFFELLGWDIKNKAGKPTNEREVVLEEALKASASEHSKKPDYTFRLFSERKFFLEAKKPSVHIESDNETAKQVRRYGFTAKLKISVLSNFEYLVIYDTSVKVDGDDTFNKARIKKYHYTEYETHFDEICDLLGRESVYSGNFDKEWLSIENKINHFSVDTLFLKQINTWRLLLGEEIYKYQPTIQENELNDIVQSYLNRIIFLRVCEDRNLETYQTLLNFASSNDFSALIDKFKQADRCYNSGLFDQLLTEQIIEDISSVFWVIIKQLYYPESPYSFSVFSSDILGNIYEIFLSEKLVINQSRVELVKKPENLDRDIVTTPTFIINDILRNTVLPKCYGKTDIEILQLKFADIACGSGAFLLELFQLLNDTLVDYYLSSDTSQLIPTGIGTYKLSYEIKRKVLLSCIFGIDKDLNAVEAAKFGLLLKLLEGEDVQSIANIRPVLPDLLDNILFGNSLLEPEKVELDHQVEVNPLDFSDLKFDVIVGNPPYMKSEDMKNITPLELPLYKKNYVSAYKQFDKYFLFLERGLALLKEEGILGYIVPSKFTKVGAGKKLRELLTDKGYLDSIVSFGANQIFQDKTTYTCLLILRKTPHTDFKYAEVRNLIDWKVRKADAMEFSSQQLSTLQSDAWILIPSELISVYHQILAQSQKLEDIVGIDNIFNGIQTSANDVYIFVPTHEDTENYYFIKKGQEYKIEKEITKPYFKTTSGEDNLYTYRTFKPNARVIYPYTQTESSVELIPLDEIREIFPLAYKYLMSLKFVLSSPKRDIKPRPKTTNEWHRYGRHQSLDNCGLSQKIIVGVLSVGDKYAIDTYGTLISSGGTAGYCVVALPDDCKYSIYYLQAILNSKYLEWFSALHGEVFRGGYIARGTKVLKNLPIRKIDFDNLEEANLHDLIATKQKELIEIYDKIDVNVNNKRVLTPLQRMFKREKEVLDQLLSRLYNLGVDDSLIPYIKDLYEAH
Experiment: cleavage_in_vitro
Details: cell extract; lambda DNA substrate

Q: How did the activity (units per gram wet cells) turn out when lambda DNA was run?
A: The activity (units per gram wet cells) was 17400.
